Source: publication PMC2818519 (Journal of structural biology, 2009)

B1: SUR2A nucleotide binding domain 1 (NBD1, D666-890) (domain or fragment, murine, UniProt P70170-1 666-890, looked up)
chain: DIAIKVTNGYFSWGSGLATLSNIDIRIPTGQLTMIVGQVGCGKSSLLLAILGEMQTLEGKVYWNNVNESEPSFEATRSRSRYSVAYAAQKPWLLNATVEENITFGSPFNRQRYKAVTDACSLQPDIDLLPFGDQTEIGERGINLSGGQRQRICVARALYQNTNIVFLDDPFSALDIHLSDHLMQEGILKFLQDDKRTVVLVTHKLQYLTHADWIIAMKDGSVLRE

Key:
[1] = target: SUR2A nucleotide binding domain 2 (NBD2, G1301-K1546) (murine); assay: SAXS
SAXS = target: the molecule itself; assay: SAXS

| Molecule | stoichiometry N [1] | stoichiometry N (SAXS) |
| --- | --- | --- |
| SUR2A nucleotide binding domain 2 (NBD2, G1301-K1546) (domain or fragment) | 8 |  |
| B1 |  | 8 |
